For test [1], the target named is toxic shock syndrome toxin-1 (TSST-1), Staphylococcus aureus superantigen peptide. The experiment in a line: soluble, other.
The target of test [2] is staphylococcal enterotoxin B (SEB), Staphylococcus aureus superantigen peptide. The test is described as follows: fusion: Aga2 (yeast display).

The values below come from US20110245153A1.

For orientation: Kd means the concentration at which binding is half-saturated. High values mean weaker binding, low ones tighter binding. wild type hVβ2.1 returned a dissociation constant (Kd) in test [1] of 2.3 µM. In other words, the single-digit micromolar range.
EGIGYITK gave an equilibrium dissociation constant (Kd) in test [2] of 0.005 µM. In other words, the single-digit nanomolar range.
